We go through three molecules from patent publication US20160045487A1, “COMPOSITIONS AND METHODS FOR TREATING NEUROPATHY” (CHILDEREN'S MEDICAL CENTER CORPORATION, priority 2013, published 2016).

In assay [1] the test system is GFRα/RET receptor signaling. The assay can be described thus: Tyrosine hydroxylase promoter luciferase reporter assay in SH-SY5Y-THpGL3 cells. It counts as cell-based, human. As to conditions: for maximal effect, luciferase activity: 18 nM ligand alone; for minimal ligand dose necessary to induce luciferase activity above control / luciferase activity versus ligand concentration: ligand alone; for minimal ligand dose necessary to induce luciferase activity above control: 10 minutes, washout, overnight; for luciferase activity versus ligand concentration: luciferase measured 18 hours later. From the text: (§1) One goal of these studies was to determine if XIB4035 could be used for treating SFN in humans. Using the Neuro2A (N2A) murine neuroblastoma cell line, Tokugawa et al. (supra) reported XIB4035 as a competitive agonist for the GDNF receptor GFRα1 that activates the RET receptor. Since populations of DRG sensory neurons express different GFRα receptors, thus making them preferentially responsive to the particular ligands, it was important to determine if XIB4035 was specific to GFRα1 or could act on other family members. Since PSPN has no effect on peripheral sensory neurons, the GFRα1, GFRα2, and GFRα3 receptors were the focus of these studies. The SH-SY5Y, a human neuroblastoma cell line expressing mRNA for GFRα1, GFRα2, and GFRα3, was used to perform two cell-based assays; immunoblots measuring RET phosphorylation and a luciferase reporter assay using the tyrosine hydroxylase (TH) promoter. For the latter two paradigms were used, either overnight treatment immediately followed by luciferase activity measurements or 10 minute treatments followed by washout and overnight incubation prior to measurements. GDNF and ARTN induced robust TH-luciferase activity in a dose dependent manner (FIG. 3E). Because the responses to GDNF and ARTN were more robust, these two factors were chosen for further analysis.
The tyrosine hydroxylase promoter was cloned into the pGL3 basic vector (Promega, Madison, Wis., USA) at the Mlu I and Hind III sites, as previously described (Zwick, supra) (TH-pGL3). Briefly, a 2 Kb promoter region upstream from the transcription initiation site of the rat TH gene was cloned from genomic DNA using the primer sequences, […] and […]. SH-SY5Y cells were co-transfected with the TH-pGL3 and the pBabe-puromycin expression vectors at a molar ratio of 10:1. Cells were selected for stable puromycin resistance at a final concentration of 0.5 μg/ml of puromycin-dihydrochloride. Stable colonies were selected and tested for TH-directed luciferase response to GDNF family ligand stimulation. One stable clone, SH-SY5Y-THpGL3, with good signal-to-noise ratio was selected for use in the experiments.
SH-SY5Y-THpGL3 cells were maintained in DMEM/F12, 5% FBS, and 1% penicillin/streptomycin and plated on collagen coated plates (4 μg/ml). Neuro-2A cells were grown in MEM, 5% FBS, and 1% penicillin/streptomycin. BE(2)-C cells were grown in DMEM/F12 media containing 5% FBS and 1% penicillin/streptomycin. PC-12 cells were maintained in media containing RPMI-1640, 10% horse serum, 5% FBS, and 1% penicillin/streptomycin on collagen coated plates. For luciferase assays, cells were treated for either 10 minutes with washout or overnight with various molecules and assayed for firefly luciferase 16-24 hours post-treatment using the luciferase assay system (Promega, Madison, Wis., USA).
(A reporter such as luciferase makes a cellular process visible.)

For a further assay, the target named is T1, GFRα3/RET (UniProt O60609+P35546).
T1 construct: N2A cells (which express RET) transfected with GFRα1 or GFRα3 expression constructs; expressed in transfected cells; host or cells: Neuro2A (N2A) cells; GFRα3 plasmid was a gift from Dr. Milbrandt; RET is endogenous
T1 sequence (O60609 32-374 limits assumed): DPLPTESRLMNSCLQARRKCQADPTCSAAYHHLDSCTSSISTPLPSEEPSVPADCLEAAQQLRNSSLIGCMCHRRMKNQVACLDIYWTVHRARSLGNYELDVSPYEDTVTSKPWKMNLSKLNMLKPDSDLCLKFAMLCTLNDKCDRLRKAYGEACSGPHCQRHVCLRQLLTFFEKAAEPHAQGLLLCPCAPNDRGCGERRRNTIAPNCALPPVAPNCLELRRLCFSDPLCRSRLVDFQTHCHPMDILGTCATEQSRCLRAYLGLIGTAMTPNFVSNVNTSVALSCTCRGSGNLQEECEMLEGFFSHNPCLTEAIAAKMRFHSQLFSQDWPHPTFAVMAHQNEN
T1 sequence (P35546 29-1115): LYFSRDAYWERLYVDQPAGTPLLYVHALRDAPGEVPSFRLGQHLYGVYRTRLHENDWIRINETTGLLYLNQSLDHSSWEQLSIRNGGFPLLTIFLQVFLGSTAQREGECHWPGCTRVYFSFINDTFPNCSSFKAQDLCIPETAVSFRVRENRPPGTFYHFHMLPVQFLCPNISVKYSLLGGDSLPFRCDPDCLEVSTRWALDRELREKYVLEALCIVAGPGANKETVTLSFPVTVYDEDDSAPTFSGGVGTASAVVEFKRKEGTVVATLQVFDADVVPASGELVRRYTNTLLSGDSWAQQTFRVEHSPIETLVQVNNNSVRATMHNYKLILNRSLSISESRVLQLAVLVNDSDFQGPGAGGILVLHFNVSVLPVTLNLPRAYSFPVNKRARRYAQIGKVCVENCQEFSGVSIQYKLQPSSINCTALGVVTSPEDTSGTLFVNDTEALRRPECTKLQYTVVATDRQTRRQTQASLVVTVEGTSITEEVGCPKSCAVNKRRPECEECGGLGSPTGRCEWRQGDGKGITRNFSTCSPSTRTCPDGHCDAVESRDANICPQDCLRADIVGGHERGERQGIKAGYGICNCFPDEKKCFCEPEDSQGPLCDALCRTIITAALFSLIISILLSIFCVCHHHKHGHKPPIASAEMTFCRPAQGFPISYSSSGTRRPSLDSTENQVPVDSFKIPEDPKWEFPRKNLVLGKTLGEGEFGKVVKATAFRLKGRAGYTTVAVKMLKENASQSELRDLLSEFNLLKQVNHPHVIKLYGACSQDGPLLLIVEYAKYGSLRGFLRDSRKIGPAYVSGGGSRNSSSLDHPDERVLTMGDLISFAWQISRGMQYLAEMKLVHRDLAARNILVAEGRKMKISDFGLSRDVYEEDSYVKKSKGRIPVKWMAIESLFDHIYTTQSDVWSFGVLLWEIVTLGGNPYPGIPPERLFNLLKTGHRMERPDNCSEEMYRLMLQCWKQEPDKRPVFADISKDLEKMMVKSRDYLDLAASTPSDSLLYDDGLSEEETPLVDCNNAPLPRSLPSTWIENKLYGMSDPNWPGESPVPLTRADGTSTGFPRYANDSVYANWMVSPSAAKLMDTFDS
The assay can be described thus: RET phosphorylation in N2A cells transfected with GFRα3. It is filed as cell-based, human GFRα3 in murine N2A cells. To be noted: 1 nM ARTN. The procedure:
(§2) Since the original report argued that XIB4035 displaces GDNF binding to GFRα1 expressing cells (FIG. 2 in Tokugawa et al., Neurochem Int 42, 81-86 (2003).), potentially ARTN, on TH-luciferase activity and Ret phosphorylation. […] In this experiment, cells were treated with GDNF or ARTN with or without XIB4035 for 10 minutes and cell lysates were either collected immediately or treatment was washed out and replaced with growth media for 30, 60, or 120 minutes. […] Therefore, we tested cells expressing only one GFRα using either N2A cells (which express RET) transfected with GFRα1 or GFRα3 expression constructs, or B(E)2-C cells, which express only GFRα2 together with RET. […] The GFRα1 or GFRα3 transfected N2A cells were then treated with XIB4035 alone, the appropriate ligand for the expressed receptor alone, or XIB4035 and ligand in combination for 10 minutes, and collected lysates immediately after treatment or 60 minutes after washout. […] Similar results were obtained with GFRα2 and NRTN using B(E)2-C cells (FIG. 8). Thus, XIB4035 is a positive modulator of signaling by GDNF family ligands and their receptors, not an agonist for GFRα1 as previously reported.
(§3) For phosphorylated Ret immunoblot experiments, cells were treated with various combinations of molecules for 10 minutes and either collected immediately or had treatment washed out and returned to control treatment media for the times indicated prior to cell collection. Lysates were collected in buffer containing: 50 mM Tris-HCL, 1% TX-100, 0.25% Deoxycholic acid, 150 mM sodium chloride, 1 mM EDTA, 0.1 mM sodium fluoride, 0.1 mM sodium pyrophosphate, 0.02 mM sodium orthovanadate, and protease inhibitors Immunoblots were blocked in 5% bovine serum albumin in tris-buffered saline+0.2% Tween 20+0.1 mM sodium fluoride, 0.1 mM sodium pyrophosphate, and 0.02 mM sodium orthovanadate and probed in blocking solution using anti-phospotyrosine (4G10) mouse monoclonal antibody (1:2000; EMD Milipore Corp., Billerica, Mass.). […]

For assay [2], the target named is T2, RET (Mus musculus, UniProt P35546).
T2 construct: endogenous in cells
T2 sequence (P35546 29-1115): as above
Description: RET phosphorylation in control transfected (mGFP) N2A cells. It counts as cell-based, murine. To be noted: 2 nM GDNF or 1 nM ARTN. Here is the method: as §2, with “reported. […]” for “reported.”

The target in another assay is T3, GFRα2/RET (Homo sapiens, UniProt O00451+P07949).
T3 construct: B(E)2-C cells, which express only GFRα2 together with RET; endogenous in cells; host or cells: B(E)2-C / BE(2)-C cells
T3 sequence (O00451 22-444 limits assumed): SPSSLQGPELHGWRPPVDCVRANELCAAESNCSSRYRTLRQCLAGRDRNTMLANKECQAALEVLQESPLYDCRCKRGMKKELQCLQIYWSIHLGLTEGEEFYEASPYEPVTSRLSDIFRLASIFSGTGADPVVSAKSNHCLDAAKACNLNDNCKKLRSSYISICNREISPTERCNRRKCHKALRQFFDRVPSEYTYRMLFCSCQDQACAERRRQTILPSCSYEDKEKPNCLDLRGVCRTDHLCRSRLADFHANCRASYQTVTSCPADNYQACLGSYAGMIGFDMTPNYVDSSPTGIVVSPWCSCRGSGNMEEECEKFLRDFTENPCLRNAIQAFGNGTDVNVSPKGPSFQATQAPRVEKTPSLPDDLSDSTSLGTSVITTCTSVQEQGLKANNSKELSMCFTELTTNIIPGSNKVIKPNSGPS
T3 sequence (P07949 29-1114): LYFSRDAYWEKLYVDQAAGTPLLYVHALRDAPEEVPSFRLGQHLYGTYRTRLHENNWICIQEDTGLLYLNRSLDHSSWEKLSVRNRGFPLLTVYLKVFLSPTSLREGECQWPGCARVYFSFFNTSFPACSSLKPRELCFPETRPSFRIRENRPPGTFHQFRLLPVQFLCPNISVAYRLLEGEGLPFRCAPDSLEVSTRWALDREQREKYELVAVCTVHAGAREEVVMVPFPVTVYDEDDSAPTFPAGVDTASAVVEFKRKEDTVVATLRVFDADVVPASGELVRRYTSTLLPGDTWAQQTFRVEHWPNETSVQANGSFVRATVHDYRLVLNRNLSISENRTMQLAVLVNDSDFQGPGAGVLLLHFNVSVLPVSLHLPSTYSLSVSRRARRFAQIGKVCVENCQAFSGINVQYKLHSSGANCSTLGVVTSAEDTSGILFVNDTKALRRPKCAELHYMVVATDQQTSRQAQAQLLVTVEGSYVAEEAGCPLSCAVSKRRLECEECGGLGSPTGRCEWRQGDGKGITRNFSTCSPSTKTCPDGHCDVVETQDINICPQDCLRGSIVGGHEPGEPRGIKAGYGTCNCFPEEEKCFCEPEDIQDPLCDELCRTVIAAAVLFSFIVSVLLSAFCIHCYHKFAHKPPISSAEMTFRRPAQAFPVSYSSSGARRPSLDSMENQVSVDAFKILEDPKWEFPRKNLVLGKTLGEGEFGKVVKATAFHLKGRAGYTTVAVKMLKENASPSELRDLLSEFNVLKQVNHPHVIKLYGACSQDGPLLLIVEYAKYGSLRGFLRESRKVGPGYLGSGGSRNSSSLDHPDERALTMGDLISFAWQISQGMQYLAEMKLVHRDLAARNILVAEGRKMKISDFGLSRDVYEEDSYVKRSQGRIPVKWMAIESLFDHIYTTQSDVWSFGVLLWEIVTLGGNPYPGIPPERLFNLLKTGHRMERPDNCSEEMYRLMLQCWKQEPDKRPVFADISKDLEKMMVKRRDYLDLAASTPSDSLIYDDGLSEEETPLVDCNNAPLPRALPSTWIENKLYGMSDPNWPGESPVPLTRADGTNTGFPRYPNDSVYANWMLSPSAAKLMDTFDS
The assay can be described thus: NRTN/GFRα2-induced RET phosphorylation in B(E)2-C cells. It is filed as cell-based. As to conditions: 2 nM NRTN alone, 10 minutes, then 60 minutes growth medium. The procedure: B(E)2-C cells, which express GFRα2, were treated under different conditions (no treatment, 2 nM NRTN, or 2 nM NRTN with 20 μM XIB4035) for 10 minutes. Cells were either lysed immediately or after incubation in growth medium for an additional 60 minutes.
as §2, with “Thus, XIB4035 is a positive modulator of signaling by GDNF family ligands and their receptors, not an agonist for GFRα1 as previously reported.” left out

The target in assay [3] is T4, RET (Homo sapiens, UniProt P07949+P56159).
T4 construct: endogenous in cells; host or cells: SH-SY5Y (SH-SY5Y-THpGL3) human neuroblastoma cells
T4 sequence (P07949 29-1114): as above
T4 sequence (P56159 25-429 limits assumed): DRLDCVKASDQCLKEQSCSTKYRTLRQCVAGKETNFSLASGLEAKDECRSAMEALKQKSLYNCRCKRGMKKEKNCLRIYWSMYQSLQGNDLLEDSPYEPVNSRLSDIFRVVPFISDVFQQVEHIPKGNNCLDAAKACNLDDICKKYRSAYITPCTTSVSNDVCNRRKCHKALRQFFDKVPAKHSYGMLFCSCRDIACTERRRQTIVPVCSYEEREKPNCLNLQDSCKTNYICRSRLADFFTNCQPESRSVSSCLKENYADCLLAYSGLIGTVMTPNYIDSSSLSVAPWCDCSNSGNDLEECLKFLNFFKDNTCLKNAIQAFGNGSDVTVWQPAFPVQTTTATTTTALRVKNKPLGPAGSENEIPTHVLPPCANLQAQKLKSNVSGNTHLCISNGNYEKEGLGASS
Description: RET phosphorylation phospho-tyrosine Western blot in SH-SY5Y cells. It counts as cell-based. As to conditions: 2 nM GDNF, two or 10 minutes.
Text: as §1
Since the original report argued that XIB4035 displaces GDNF binding to GFRα1 expressing cells (FIG. 2 in Tokugawa et al., Neurochem Int 42, 81-86 (2003).), potentially ARTN, on TH-luciferase activity and Ret phosphorylation. […] In this experiment, cells were treated with GDNF or ARTN with or without XIB4035 for 10 minutes and cell lysates were either collected immediately or treatment was washed out and replaced with growth media for 30, 60, or 120 minutes. […] Therefore, we tested cells expressing only one GFRα using either N2A cells (which express RET) transfected with GFRα1 or GFRα3 expression constructs, or B(E)2-C cells, which express only GFRα2 together with RET. […]

The next assay addresses T5, GFRα1/RET (UniProt P35546+Q62997).
T5 construct: N2A cells (which express RET) transfected with GFRα1 or GFRα3 expression constructs; expressed in transfected cells; host or cells: Neuro2A (N2A) cells; GFRα1 plasmid was a gift from Dr. Milbrandt; RET is endogenous
The assay can be described thus: RET phosphorylation in N2A cells transfected with GFRα1. It is filed as cell-based, rat GFRα1 in murine N2A cells. To be noted: 2 nM GDNF. Here is the method: as §2, §3

T5 sequence (Q62997 25-430 limits assumed): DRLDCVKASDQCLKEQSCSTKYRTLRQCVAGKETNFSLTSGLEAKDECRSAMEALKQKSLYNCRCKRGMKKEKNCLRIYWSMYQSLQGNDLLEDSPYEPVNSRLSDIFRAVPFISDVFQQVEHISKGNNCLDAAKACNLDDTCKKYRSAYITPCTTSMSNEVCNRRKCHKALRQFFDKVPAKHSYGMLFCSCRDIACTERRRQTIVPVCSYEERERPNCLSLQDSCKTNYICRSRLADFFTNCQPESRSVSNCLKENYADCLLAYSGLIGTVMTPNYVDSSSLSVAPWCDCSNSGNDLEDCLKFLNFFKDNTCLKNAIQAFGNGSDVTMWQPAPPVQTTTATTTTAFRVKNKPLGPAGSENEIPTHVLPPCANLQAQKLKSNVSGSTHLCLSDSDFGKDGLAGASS
T5 sequence (P35546 29-1115): as the sequence (P35546 29-1115) above

Regarding “ARTN: artemin, GDNF family ligand of GFRα3; purchased from Peprotech”, in assay [1], the “maximal effect, luciferase activity” value is reported as 2.78±0.44 fold over control; the “minimal ligand dose necessary to induce luciferase activity above control” value is given as 75 pM; the “luciferase activity versus ligand concentration” value was “dose-dependent increase”. Also, the RET phosphorylation entry with GFRα3/RET is listed as “induced RET phosphorylation”. The RET phosphorylation result in the assay with RET [2] was “No RET phosphorylation was detected”.

B1: NRTN: neuturin, GDNF family ligand of GFRα2; purchased from Peprotech (protein, UniProt Q99748 96-197, looked up)
Neurturin: ARLGARPCGLRELEVRVSELGLGYASDETVLFRYCAGACEAAARVYDLGLRRLRQRRRLRRERVRAQPCCRPTAYEDEVSFLDAHSRYHTVHELSARECACV
Take B1: the “luciferase activity versus ligand concentration” value in assay [1] is reported as “dose-dependent increase”. Moreover, the “RET phosphorylation at 60 min” value with GFRα2/RET was “not detectable”.

B2: GDNF: Glial cell line-derived neurotrophic factor, GFRα1 ligand; purchased from Peprotech (protein, UniProt P39905 78-211, looked up)
Glial cell line-derived …: SPDKQMAVLPRRERNRQAAAANPENSRGKGRRGQRGKNRGCVLTAIHLNVTDLGLGYETKEELIFRYCSGSCDAAETTYDKILKNLSRNRRLVSDKVGQACCRPIAFDDDLSFLDDNLVYHILRKHSAKRCGCI
Turning to B2, in assay [1] (2 nM GDNF, 10 minutes then overnight in regular medium, or overnight), the “TH promoter activity (luciferase)” value is “increases TH promoter activity”. Besides, in assay [1], the “maximal effect, luciferase activity” value came out at 2.76±0.32 fold over control; the “minimal ligand dose necessary to induce luciferase activity above control” value is recorded as 75 pM; the “luciferase activity versus ligand concentration” value is recorded as “dose-dependent increase”. Moreover, in the assay with RET [3], the RET phosphorylation entry is on record as “induced”. In addition, the RET phosphorylation entry in the assay with GFRα1/RET is listed as “induced RET phosphorylation”. The RET phosphorylation result with RET [2] is given as “No RET phosphorylation was detected”.
